Assay results from US20120058906A1 (published 2012).

Experiments:
[1] = biological target: T1, rHuman CD44/Fc Chimera, CF (R&D Systems Cat#3660-CD) (human, UniProt P16070 21-220); assay: ECL (MSD Multi-Spot) binding assay, antigen spotted on plate; Fab 3.8 nM; blank spot 198;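 further: blank spot per well as comparator with Hit at signal to blank ratio of 4 or more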
T1 construct: Bought Fc chimera; Fc part of the bought chimera not given

[2] = biological target: T2, rHuman P-Cadherin/Fc Chimera, CF (R&D Systems Cat#861-PC) (human, UniProt P22223 108-654); assay: as above
T2 construct: Bought Fc chimera; also called CDH3; Fc part of the bought chimera not given

[3] = biological target: T3, rHuman Erythropoietin R/Fc Chimera, CF (R&D Systems Cat#963-ER) (human, UniProt P19235 25-250); assay: as above
T3 construct: Bought Fc chimera; also called EPO R/Fc; Epo R; Fc part of the bought chimera not given
T3 sequence: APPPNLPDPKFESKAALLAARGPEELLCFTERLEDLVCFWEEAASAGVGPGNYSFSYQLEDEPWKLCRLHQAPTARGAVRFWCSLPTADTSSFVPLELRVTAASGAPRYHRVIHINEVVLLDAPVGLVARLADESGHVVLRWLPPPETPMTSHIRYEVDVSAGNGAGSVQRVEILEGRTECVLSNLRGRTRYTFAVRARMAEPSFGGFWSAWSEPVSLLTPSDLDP

[4] = biological target: T4, rHuman Notch-1/Fc Chimera, CF (R&D Systems Cat#3647-TK) (human, UniProt P46531 19-526); assay: as above
T4 construct: Bought Fc chimera; Fc part of the bought chimera not given

[5] = biological target: T5, Recombinant Human DLL4 (R&D Systems Cat#1506-D4/CF) (human, UniProt Q9NR61 27-524); assay: as above
T5 construct: Bought recombinant protein; also called delta-like protein 4; rHuman DLL4

[6] = biological target: T6, rHuman EGF R/Fc Chimera, CF (R&D Systems Cat#344-ER) (human, UniProt P00533 25-645); assay: MSD ECL multi-spot plate, antigen immobilized; Fab 40 nM; blank spot 502;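 further: blank spot per well as comparator with Hit at signal to blank ratio of 4 or more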
T6 construct: Purchased Fc chimera; not shown: Fc portion of the purchased chimera

[7] = biological target: T7, rHuman ErbB2/Fc Chimera, CF (R&D Systems Cat#1129-ER) (human, UniProt P04626 23-652); assay: as above
T7 construct: Purchased Fc chimera; also called HER2/neu; not shown: Fc portion of the purchased chimera

[8] = biological target: T8, rHuman HGF R/c-MET/Fc Chimera, CF (R&D Systems Cat#358-MT/CF) (human, UniProt P08581 25-932); assay: as above
T8 construct: Purchased Fc chimera; also called HGF R/Fc; not shown: Fc portion of the purchased chimera

[9] = biological target: T9, rHuman P-Cadherin/Fc Chimera, CF (R&D Systems Cat#861-PC) (human, UniProt P22223 108-654); assay: as above
T9 construct: Purchased Fc chimera; not shown: Fc portion of the purchased chimera

[10] = biological target: T10, rHuman CD44/Fc Chimera, CF (R&D Systems Cat#3660-CD) (human, UniProt P16070 21-220); assay: as above
T10 construct: Purchased Fc chimera; not shown: Fc portion of the purchased chimera

[11] = biological target: T11, Recombinant Human DLL4 (R&D Systems Cat#1506-D4/CF) (human, UniProt Q9NR61 27-524); assay: as above
T11 construct: Purchased recombinant protein; also called delta-like protein 4

[12] = biological target: T12, rHuman Erythropoietin R/Fc Chimera, CF (R&D Systems Cat#963-ER) (human, UniProt P19235 25-250); assay: as above
T12 construct: Purchased Fc chimera; also called EPO R/Fc; Epo R; not shown: Fc portion of the purchased chimera
T12 sequence: T3 sequence

[13] = biological target: T13, rHuman Notch-1/Fc Chimera, CF (R&D Systems Cat#3647-TK) (human, UniProt P46531 19-526); assay: as above
T13 construct: Purchased Fc chimera; not shown: Fc portion of the purchased chimera

[14] = biological target: T14, rHuman IGF-1 sR (IGF-1 sR), CF (R&D Systems Cat#391-GR) (human, UniProt P08069 31-932); assay: as above
T14 construct: Purchased soluble receptor; also called insulin-like growth factor-1 soluble receptor; IGF-R1

[15] = biological target: T15, rHuman Notch-1/Fc Chimera, CF (R&D Systems Cat#3647-TK) (human, UniProt P46531 19-526); assay: ECL (MSD multi-spot), antigen on plate, Fab 500 nM
T15 construct: Bought Fc chimera; not shown: Fc of the bought chimera

[16] = biological target: T16, rHuman P-Cadherin/Fc Chimera, CF (R&D Systems Cat#861-PC) (human, UniProt P22223 108-654); assay: ECL (MSD multi-spot), antigen on plate, Fab 500 nM
T16 construct: Bought Fc chimera; also called CDH3; not shown: Fc of the bought chimera

[17] = biological target: T17, rHuman EGF R/Fc Chimera, CF (R&D Systems Cat#344-ER) (human, UniProt P00533 25-645); assay: ECL (MSD multi-spot), antigen on plate, Fab 500 nM
T17 construct: Bought Fc chimera; also called ErbB-1; not shown: Fc of the bought chimera

[18] = biological target: T18, Recombinant Human DLL4 (R&D Systems Cat#1506-D4/CF) (human, UniProt Q9NR61 27-524); assay: ECL (MSD multi-spot), antigen on plate, Fab 500 nM
T18 construct: Bought recombinant protein; also called delta-like protein 4

[19] = biological target: T19, rHuman CD44/Fc Chimera, CF (R&D Systems Cat#3660-CD) (human, UniProt P16070 21-220); assay: ECL (MSD multi-spot), antigen on plate, Fab 500 nM
T19 construct: Bought Fc chimera; not shown: Fc of the bought chimera

B1: Fab VH6-1_IGHD3-3*01_IGHJ4*01 & V4-3_IGLJ4*01 (Fab, V domains shown)
VH: QVQLQQSGPGLVKPSQTLSLTCAISGDSVSSNSAAWNWIRQSPSRGLEWLGRTYYRSKWYNDYAVSVKSRITINPDTSKNQFSLQLNSVTPEDTAVYYCAREYYDFWSGYYTDYFDYWGQGTLVTVSS
VL: QPVLTQPTSLSASPGASARLTCTLRSGINLGSYRIFWYQQKPESPPRYLLSYYSDSSKHQGSGVPSRFSGSKDASSNAGILVISGLQSEDEADYYCMIWHSSASFVFGGGTQLIIL
notes: Tested as a Fab made in E. coli; also called IGHV6-1*01
ECL signal [1]: 419
ECL signal [2]: 281
ECL signal [3]: 407
ECL signal [4]: 383
ECL signal [5]: 462

B2: Fab VH5-51_IGHD5-18*01>3_IGHJ4*01_G100R & V3-4_IGLJ1*01 (Fab, V domains shown)
VH: EVQLVQSGAEVKKPGESLKISCKGSGYSFTSYWIGWVRQMPGKGLEWMGIIYPGDSDTRYSPSFQGQVTISADKSISTAYLQWSSLKASDTAMYYCARRRYSYGYDYFDYWGQGTLVTVSS
VL: QTVVTQEPSFSVSPGGTVTLTCGLSSGSVSTSYYPSWYQQTPGQAPRTLIYSTNTRSSGVPDRFSGSILGNKAALTITGAQADDESDYYCVLYMGSGISYVFGTGTKVTVL
notes: It was expressed as a Fab: CH1 with tags from Plasmid A and lambda CL from Plasmid E; also called Fab No. 23
ECL signal [6]: 1110 ECL signal
ECL signal [7]: 1420 ECL signal
ECL signal [8]: 1230 ECL signal
ECL signal [9]: 1020 ECL signal
ECL signal [10]: 824 ECL signal
ECL signal [11]: 19500 ECL signal
ECL signal [12]: 994 ECL signal
ECL signal [13]: 1010 ECL signal
ECL signal [14]: 1240 ECL signal

B3: Fab VH1-46_IGHD6-6*01_IGHJ1*01_S102A_S103P_S104Y_H111Y & L6_IGKJ1*01 (Fab, V domains shown)
VH: QVQLVQSGAEVKKPGASVKVSCKASGYTFTSYYMHWVRQAPGQGLEWMGIINPSGGSTSYAQKFQGRVTMTRDTSTSTVYMELSSLRSEDTAVYYCAREEYAPYSAEYFQYWGQGTLVTVSS
VL: not shown
notes: Fab made in E. coli; The heavy chain also carries CH1 with Flag and His tags from Plasmid A, and the light chain carries kappa CL from Plasmid C
ECL signal [15]: 689 ECL signal
ECL signal [16]: 1200 ECL signal
ECL signal [17]: 758 ECL signal
ECL signal [18]: 106000 ECL signal
ECL signal [19]: 604 ECL signal
